Measured values taken from patent US20220160663A1 (SEOUL NATIONAL UNIVERSITY R AND DB FOUNDATION, published 2022).

Target: T1, Glut1 (accession number: NP_006507) WT, HA-tagged (UniProt P11166 1-492)
T1 construct: Expressed in THP-1 cells from a plasmid; Detected in the pull-down by anti-HA Western blot; also called WT Glut1; Glut-HA; not shown: HA tag
T1 sequence (looked up): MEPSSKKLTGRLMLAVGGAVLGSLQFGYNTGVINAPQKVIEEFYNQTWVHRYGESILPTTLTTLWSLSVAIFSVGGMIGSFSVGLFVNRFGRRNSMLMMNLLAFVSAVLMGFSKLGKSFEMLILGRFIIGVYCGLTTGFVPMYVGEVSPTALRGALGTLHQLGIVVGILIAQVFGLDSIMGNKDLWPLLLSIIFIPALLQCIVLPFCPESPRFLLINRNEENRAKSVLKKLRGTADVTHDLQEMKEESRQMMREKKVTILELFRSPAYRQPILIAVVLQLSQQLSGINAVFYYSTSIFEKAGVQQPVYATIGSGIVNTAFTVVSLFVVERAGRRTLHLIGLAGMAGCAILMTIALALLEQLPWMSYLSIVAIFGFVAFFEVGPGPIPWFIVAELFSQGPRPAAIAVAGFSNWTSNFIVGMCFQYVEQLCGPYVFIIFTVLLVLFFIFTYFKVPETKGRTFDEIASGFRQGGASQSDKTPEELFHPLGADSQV
Assay: Strep pull-down from THP-1 cell extract, anti-HA Western blot
Description: THP-1 cell line was transfected with expression plasmids for TM4SF5-Strep (control vector, WT, N-Glycosylation-deficient mutant; N138A/N155Q), Palmitoylation-deficient mutant (C2/6/9/75/76/80/81/85/189A), Glut1 (accession number: NP_006507) WT, Glut1 K38A, and Glut1 E329Q, and after 48 hours, cell extracts were obtained. The binding of TM4SF5 and Glut1 was confirmed by Western blotting of Glut-HA using an anti-HA antibody by pulling-down with strepavidin agarose resin (Thermo Fisher Scientific).

binding result: no binding
B1: TM4SF5-Strep N-Glycosylation-deficient mutant N138A/N155Q (other, human, UniProt O14894 1-197, looked up)
chain: MCTGKCARCVGLSLITLCLVCIVANALLLVPNGETSWTNTNHLSLQVWLMGGFIGGGLMVLCPGIAAVRAGGKGCCGAGCCGNRCRMLRSVFSSAFGVLGAIYCLSVSGAGLRNGPRCLMNGEWGYHFEDTAGAYLLARTLWDRCEAPPRVVPWQVTLFSLLVAASCLEIVLCGIQLVNATIGVFCGDCRKKQDTPH
notes: Expressed in THP-1 cells and pulled down from the cell extract with streptavidin agarose; not shown: Strep tag
